Earlier results in paper PMC6277024.

Molecular target: WRESAI hexapeptide

Tip-1 PDZ (from UniProt O14907)
Kd: 10 nM
